Data set [1] addresses T1, P7-sensitive core RNA polymerase (P7SE; hybrid E. coli core with Xo beta' N-terminus NLFN);sigma70 (Escherichia coli (397c cells, …, UniProt P0A7Z4;P0A8V2;Q2NZX9;P0A800;P00579 1-329;1-1342;1-10+P0A8T7:11-1407;2-91;1-613, internal_change|). The data set can be described thus: EMSA; no P7; heparin-resistant open complex. Particulars: protein: recombinant;recombinant; tags: C-6His on beta';N-6His-HMK in 32P-labelled experiments; unlabelled form purified separately; chain copies: 2;1;1;1;1; blunt. On the technique in general: A gel shift assay detects complexes by their altered migration in electrophoresis.

Data set [2] concerns the target T1, P7-sensitive core RNA polymerase (P7SE; …). The data set can be described thus: KMnO4 footprinting. Particulars: protein: recombinant;recombinant; tags: C-6His on beta';N-6His-HMK in 32P-labelled experiments; unlabelled form purified separately; chain copies: 2;1;1;1;1; label: 5'-32P on one strand; blunt.

B1: lacUV5 promoter [-64 to +36] (dsDNA)
DNA 1: GTTAGCTCACTCATTAGGCACCCCAGGCTTTACACTTTATGCTTCCGGCTCGTATAATGTGTGGAATTGTGAGCGGATAACAATTTCACACAGGAAACAG
DNA 2: CTGTTTCCTGTGTGAAATTGTTATCCGCTCACAATTCCACACATTATACGAGCCGGAAGCATAAAGTGTAAAGCCTGGGGTGCCTAATGAGTGAGCTAAC
As for B1, in data set [1], the binding result is “binds”.

B2: T5 N25 promoter [-65 to +35] (dsDNA)
DNA 1: TCTTTGCTCAAAGAATCATAAAAAATTTATTTGCTTTCAGGAAAATTTTTCTGTATAATAGATTCATAAATTTGAGAGAGGAGTTTAAATATGGCTGGTTC
DNA 2: GAACCAGCCATATTTAAACTCCTCTCTCAAATTTATGAATCTATTATACAGAAAAATTTTCCTGAAAGCAAATAAATTTTTTATGATTCTTTGAGCAAAGA
For the molecule B2, the binding result in data set [2] is “binds”.

The record behind these values is publication PMC3985653, “A bacteriophage transcription regulator inhibits bacterial transcription initiation by σ-factor displacement”.
